Laboratory results published in publication PMC6006169, “Conformational switching in the coiled-coil domains of a proteasomal ATPase regulates substrate processing” (Nature Communications, 2018).

B1: PAN 80C (enzyme, Methanococcus jannaschii, UniProt Q58576 1-430, looked up)
chain: MVFEEFISTELKKEKKAFTEEFKEEKEINDNSNLKNDLLKEELQEKARIAELESRILKLELEKKELERENLQLMKENEICRRELDRMRVPPLIVGTVVDKVGERKVVVKSSTGPSFLVNVSHFVNPDDLAPGKRVCLNQQTLTVVDVLPENKDYRAKAMEVDERPNVRYEDIGGLEKQMQEIREVVELPLKHPELFEKVGIEPPKGILLYGPPGTGKTLLAKAVATETNATFIRVVGSELVKKFIGEGASLVKDIFKLAKEKAPSIIFIDEIDAIAAKRTDALTGGDREVQRTLMQLLAEMDGFDARGDVKIIGATNRPDILDPAILRPGRFDRIIEVPAPDEKGRLEILKIHTRKMNLAEDVNLEEIAKMTEGCVGAELKAICTEAGMNAIRELRDYVTMDDFRKAVEKIMEKKKVKVKEPAHLDVLYR
notes: Expressed from pRSETA; no tag named; source: E. coli BL21-DE3-RIL, purified (heat precipitation, anion exchange, size exclusion)
B2: PAN 73+66C (enzyme, Methanococcus jannaschii, UniProt Q58576 1-430, looked up)
chain: MVFEEFISTELKKEKKAFTEEFKEEKEINDNSNLKNDLLKEELQEKARIAELESRILKLELEKKECERENLQCMKENEILRRELDRMRVPPLIVGTVVDKVGERKVVVKSSTGPSFLVNVSHFVNPDDLAPGKRVCLNQQTLTVVDVLPENKDYRAKAMEVDERPNVRYEDIGGLEKQMQEIREVVELPLKHPELFEKVGIEPPKGILLYGPPGTGKTLLAKAVATETNATFIRVVGSELVKKFIGEGASLVKDIFKLAKEKAPSIIFIDEIDAIAAKRTDALTGGDREVQRTLMQLLAEMDGFDARGDVKIIGATNRPDILDPAILRPGRFDRIIEVPAPDEKGRLEILKIHTRKMNLAEDVNLEEIAKMTEGCVGAELKAICTEAGMNAIRELRDYVTMDDFRKAVEKIMEKKKVKVKEPAHLDVLYR
notes: as for B1
B3: PAN 80+66C (enzyme, Methanococcus jannaschii, UniProt Q58576 1-430, looked up)
chain: MVFEEFISTELKKEKKAFTEEFKEEKEINDNSNLKNDLLKEELQEKARIAELESRILKLELEKKECERENLQLMKENEICRRELDRMRVPPLIVGTVVDKVGERKVVVKSSTGPSFLVNVSHFVNPDDLAPGKRVCLNQQTLTVVDVLPENKDYRAKAMEVDERPNVRYEDIGGLEKQMQEIREVVELPLKHPELFEKVGIEPPKGILLYGPPGTGKTLLAKAVATETNATFIRVVGSELVKKFIGEGASLVKDIFKLAKEKAPSIIFIDEIDAIAAKRTDALTGGDREVQRTLMQLLAEMDGFDARGDVKIIGATNRPDILDPAILRPGRFDRIIEVPAPDEKGRLEILKIHTRKMNLAEDVNLEEIAKMTEGCVGAELKAICTEAGMNAIRELRDYVTMDDFRKAVEKIMEKKKVKVKEPAHLDVLYR
notes: as for B1
B4: PAN 87+73+59C triple mutant (enzyme, Methanococcus jannaschii, UniProt Q58576 1-430, looked up)
chain: MVFEEFISTELKKEKKAFTEEFKEEKEINDNSNLKNDLLKEELQEKARIAELESRILKCELEKKELERENLQCMKENEILRRELDRCRVPPLIVGTVVDKVGERKVVVKSSTGPSFLVNVSHFVNPDDLAPGKRVCLNQQTLTVVDVLPENKDYRAKAMEVDERPNVRYEDIGGLEKQMQEIREVVELPLKHPELFEKVGIEPPKGILLYGPPGTGKTLLAKAVATETNATFIRVVGSELVKKFIGEGASLVKDIFKLAKEKAPSIIFIDEIDAIAAKRTDALTGGDREVQRTLMQLLAEMDGFDARGDVKIIGATNRPDILDPAILRPGRFDRIIEVPAPDEKGRLEILKIHTRKMNLAEDVNLEEIAKMTEGCVGAELKAICTEAGMNAIRELRDYVTMDDFRKAVEKIMEKKKVKVKEPAHLDVLYR
notes: Expressed from pRSETA; no tag named; also called PAN 87C+73C+59C; source: E. coli BL21-DE3-RIL, purified (heat precipitation, anion exchange, size exclusion)
B5: PAN 87+80C (enzyme, Methanococcus jannaschii, UniProt Q58576 1-430, looked up)
chain: MVFEEFISTELKKEKKAFTEEFKEEKEINDNSNLKNDLLKEELQEKARIAELESRILKLELEKKELERENLQLMKENEICRRELDRCRVPPLIVGTVVDKVGERKVVVKSSTGPSFLVNVSHFVNPDDLAPGKRVCLNQQTLTVVDVLPENKDYRAKAMEVDERPNVRYEDIGGLEKQMQEIREVVELPLKHPELFEKVGIEPPKGILLYGPPGTGKTLLAKAVATETNATFIRVVGSELVKKFIGEGASLVKDIFKLAKEKAPSIIFIDEIDAIAAKRTDALTGGDREVQRTLMQLLAEMDGFDARGDVKIIGATNRPDILDPAILRPGRFDRIIEVPAPDEKGRLEILKIHTRKMNLAEDVNLEEIAKMTEGCVGAELKAICTEAGMNAIRELRDYVTMDDFRKAVEKIMEKKKVKVKEPAHLDVLYR
notes: as for B1
B6: PAN 73C (enzyme, Methanococcus jannaschii, UniProt Q58576 1-430, looked up)
chain: MVFEEFISTELKKEKKAFTEEFKEEKEINDNSNLKNDLLKEELQEKARIAELESRILKLELEKKELERENLQCMKENEILRRELDRMRVPPLIVGTVVDKVGERKVVVKSSTGPSFLVNVSHFVNPDDLAPGKRVCLNQQTLTVVDVLPENKDYRAKAMEVDERPNVRYEDIGGLEKQMQEIREVVELPLKHPELFEKVGIEPPKGILLYGPPGTGKTLLAKAVATETNATFIRVVGSELVKKFIGEGASLVKDIFKLAKEKAPSIIFIDEIDAIAAKRTDALTGGDREVQRTLMQLLAEMDGFDARGDVKIIGATNRPDILDPAILRPGRFDRIIEVPAPDEKGRLEILKIHTRKMNLAEDVNLEEIAKMTEGCVGAELKAICTEAGMNAIRELRDYVTMDDFRKAVEKIMEKKKVKVKEPAHLDVLYR
notes: as for B1
B7: PAN 66C (enzyme, Methanococcus jannaschii, UniProt Q58576 1-430, looked up)
chain: MVFEEFISTELKKEKKAFTEEFKEEKEINDNSNLKNDLLKEELQEKARIAELESRILKLELEKKECERENLQLMKENEILRRELDRMRVPPLIVGTVVDKVGERKVVVKSSTGPSFLVNVSHFVNPDDLAPGKRVCLNQQTLTVVDVLPENKDYRAKAMEVDERPNVRYEDIGGLEKQMQEIREVVELPLKHPELFEKVGIEPPKGILLYGPPGTGKTLLAKAVATETNATFIRVVGSELVKKFIGEGASLVKDIFKLAKEKAPSIIFIDEIDAIAAKRTDALTGGDREVQRTLMQLLAEMDGFDARGDVKIIGATNRPDILDPAILRPGRFDRIIEVPAPDEKGRLEILKIHTRKMNLAEDVNLEEIAKMTEGCVGAELKAICTEAGMNAIRELRDYVTMDDFRKAVEKIMEKKKVKVKEPAHLDVLYR
notes: as for B1
B8: PAN 80+59C (enzyme, Methanococcus jannaschii, UniProt Q58576 1-430, looked up)
chain: MVFEEFISTELKKEKKAFTEEFKEEKEINDNSNLKNDLLKEELQEKARIAELESRILKCELEKKELERENLQLMKENEICRRELDRMRVPPLIVGTVVDKVGERKVVVKSSTGPSFLVNVSHFVNPDDLAPGKRVCLNQQTLTVVDVLPENKDYRAKAMEVDERPNVRYEDIGGLEKQMQEIREVVELPLKHPELFEKVGIEPPKGILLYGPPGTGKTLLAKAVATETNATFIRVVGSELVKKFIGEGASLVKDIFKLAKEKAPSIIFIDEIDAIAAKRTDALTGGDREVQRTLMQLLAEMDGFDARGDVKIIGATNRPDILDPAILRPGRFDRIIEVPAPDEKGRLEILKIHTRKMNLAEDVNLEEIAKMTEGCVGAELKAICTEAGMNAIRELRDYVTMDDFRKAVEKIMEKKKVKVKEPAHLDVLYR
notes: as for B1
B9: PAN 87+59C (enzyme, Methanococcus jannaschii, UniProt Q58576 1-430, looked up)
chain: MVFEEFISTELKKEKKAFTEEFKEEKEINDNSNLKNDLLKEELQEKARIAELESRILKCELEKKELERENLQLMKENEILRRELDRCRVPPLIVGTVVDKVGERKVVVKSSTGPSFLVNVSHFVNPDDLAPGKRVCLNQQTLTVVDVLPENKDYRAKAMEVDERPNVRYEDIGGLEKQMQEIREVVELPLKHPELFEKVGIEPPKGILLYGPPGTGKTLLAKAVATETNATFIRVVGSELVKKFIGEGASLVKDIFKLAKEKAPSIIFIDEIDAIAAKRTDALTGGDREVQRTLMQLLAEMDGFDARGDVKIIGATNRPDILDPAILRPGRFDRIIEVPAPDEKGRLEILKIHTRKMNLAEDVNLEEIAKMTEGCVGAELKAICTEAGMNAIRELRDYVTMDDFRKAVEKIMEKKKVKVKEPAHLDVLYR
notes: as for B1
B10: PAN 80+73C (enzyme, Methanococcus jannaschii, UniProt Q58576 1-430, looked up)
chain: MVFEEFISTELKKEKKAFTEEFKEEKEINDNSNLKNDLLKEELQEKARIAELESRILKLELEKKELERENLQCMKENEICRRELDRMRVPPLIVGTVVDKVGERKVVVKSSTGPSFLVNVSHFVNPDDLAPGKRVCLNQQTLTVVDVLPENKDYRAKAMEVDERPNVRYEDIGGLEKQMQEIREVVELPLKHPELFEKVGIEPPKGILLYGPPGTGKTLLAKAVATETNATFIRVVGSELVKKFIGEGASLVKDIFKLAKEKAPSIIFIDEIDAIAAKRTDALTGGDREVQRTLMQLLAEMDGFDARGDVKIIGATNRPDILDPAILRPGRFDRIIEVPAPDEKGRLEILKIHTRKMNLAEDVNLEEIAKMTEGCVGAELKAICTEAGMNAIRELRDYVTMDDFRKAVEKIMEKKKVKVKEPAHLDVLYR
notes: as for B1
B11: PAN-M87C (proteasome-activating nucleotidase, M87C mutant) (enzyme, Methanococcus jannaschii, UniProt Q58576 1-430, looked up)
chain: MVFEEFISTELKKEKKAFTEEFKEEKEINDNSNLKNDLLKEELQEKARIAELESRILKLELEKKELERENLQLMKENEILRRELDRCRVPPLIVGTVVDKVGERKVVVKSSTGPSFLVNVSHFVNPDDLAPGKRVCLNQQTLTVVDVLPENKDYRAKAMEVDERPNVRYEDIGGLEKQMQEIREVVELPLKHPELFEKVGIEPPKGILLYGPPGTGKTLLAKAVATETNATFIRVVGSELVKKFIGEGASLVKDIFKLAKEKAPSIIFIDEIDAIAAKRTDALTGGDREVQRTLMQLLAEMDGFDARGDVKIIGATNRPDILDPAILRPGRFDRIIEVPAPDEKGRLEILKIHTRKMNLAEDVNLEEIAKMTEGCVGAELKAICTEAGMNAIRELRDYVTMDDFRKAVEKIMEKKKVKVKEPAHLDVLYR
notes: Expressed from pRSETA; The fraction F1 after partial trypsin proteolysis is called full-length or near full length; also called PAN-87C; M87C PAN; source: E. coli BL21-DE3-RIL, purified (heat precipitation, anion exchange, size exclusion)
B12: PAN 87+73C (enzyme, Methanococcus jannaschii, UniProt Q58576 1-430, looked up)
chain: MVFEEFISTELKKEKKAFTEEFKEEKEINDNSNLKNDLLKEELQEKARIAELESRILKLELEKKELERENLQCMKENEILRRELDRCRVPPLIVGTVVDKVGERKVVVKSSTGPSFLVNVSHFVNPDDLAPGKRVCLNQQTLTVVDVLPENKDYRAKAMEVDERPNVRYEDIGGLEKQMQEIREVVELPLKHPELFEKVGIEPPKGILLYGPPGTGKTLLAKAVATETNATFIRVVGSELVKKFIGEGASLVKDIFKLAKEKAPSIIFIDEIDAIAAKRTDALTGGDREVQRTLMQLLAEMDGFDARGDVKIIGATNRPDILDPAILRPGRFDRIIEVPAPDEKGRLEILKIHTRKMNLAEDVNLEEIAKMTEGCVGAELKAICTEAGMNAIRELRDYVTMDDFRKAVEKIMEKKKVKVKEPAHLDVLYR
notes: Expressed from pRSETA; no tag named; also called PAN 87C+73C; source: E. coli BL21-DE3-RIL, purified (heat precipitation, anion exchange, size exclusion)

Molecular target: the molecule itself
Experiment: cross-linking; disulfide cross-linking of engineered cysteines; 1 mM tetrathionate, 1-2 h, room temperature, 50 mM Tris pH 7.5 + 5% glycerol, no nucleotide, PAN at or below 0.25 mg/ml; desalted on G50, non-reducing SDS-PAGE, Coomassie, densitometry of monomers vs. dimers

Protein	binding result	percent cross-linked [%]
B1	binds	–
B2	binds	–
B3	–	72
B4	–	74
B5	binds	–
B6	binds	–
B7	binds	–
B8	binds	–
B9	binds	–
B10	binds	–

Molecular target: the molecule itself
Experiment: native gel or EMSA; native-PAGE of oxidized PAN cysteine mutants

Protein	stoichiometry N
B11	6
B3	6
B12	6
